Source: article doi:10.1101/2025.03.07.642025, “The TONSL-MMS22L complex and FANCM form an interdependent complex on chromatin to counter replication stress” (bioRxiv, 2025)

B1: MMS22L (natural protein, human (endogenous in HeLa), UniProt Q6ZRQ5 1-1243, looked up)
chain: MENCSAASTFLTDSLELELGTEWCKPPYFSCAVDNRGGGKHFSGESYLCSGALKRLILNLDPLPTNFEEDTLEIFGIQWVTETALVNSSRELFHLFRQQLYNLETLLQSSCDFGKVSTLHCKADNIRQQCVLFLHYVKVFIFRYLKVQNAESHVPVHPYEALEAQLPSVLIDELHGLLLYIGHLSELPSVNIGAFVNQNQIKLFPPSWHLLHLHLDIHWLVLEILYMLGEKLKQVVYGHQFMNLASDNLTNISLFEEHCETLLCDLISLSLNRYDKVRSSESLMSDQCPCLCIKELWVLLIHLLDHRSKWFVSESFWNWLNKLLKTLLEKSSDRRRSSMPVIQSRDPLGFSWWIITHVASFYKFDRHGVPDEMRKVESNWNFVEELLKKSISVQGVILEEQLRMYLHCCLTLCDFWEPNIAIVTILWEYYSKNLNSSFSISWLPFKGLANTMKSPLSMLEMVKTCCCDKQDQELYKSSSSYTIFLCILAKVVKKAMKSNGPHPWKQVKGRIYSKFHQKRMEELTEVGLQNFFSLFLLLAAVAEVEDVASHVLDLLNFLKPAFVTSQRALIWKGHMAFLLMYAQKNLDIGVLAEKFSCAFREKAKEFLVSKNEEMVQRQTIWTLLSIYIDGVQEVFETSYCLYPSHEKLLNDGFSMLLRACRESELRTVLSFLQAVLARIRSMHQQLCQELQRDNVDLFVQSSLSAKERHLAAVASALWRHFFSFLKSQRMSQVVPFSQLADAAADFTLLAMDMPSTAPSDFQPQPVISIIQLFGWDDIICPQVVARYLSHVLQNSTLCEALSHSGYVSFQALTVRSWIRCVLQMYIKNLSGPDDLLIDKNLEEAVEKEYMKQLVKLTRLLFNLSEVKSIFSKAQVEYLSISEDPKKALVRFFEAVGVTYGNVQTLSDKSAMVTKSLEYLGEVLKYIKPYLGKKVFSAGLQLTYGMMGILVKSWAQIFATSKAQKLLFRIIDCLLLPHAVLQQEKELPAPMLSAIQKSLPLYLQGMCIVCCQSQNPNAYLNQLLGNVIEQYIGRFLPASPYVSDLGQHPVLLALRNTATIPPISSLKKCIVQVIRKSYLEYKGSSPPPRLASILAFILQLFKETNTDIYEVELLLPGILKCLVLVSEPQVKRLATENLQYMVKACQVGSEEEPSSQLTSVFRQFIQDYGMRYYYQVYSILETVATLDQQVVIHLISTLTQSLKDSEQKWGLGRNIAQREAYSKLLSHLGQMGQDEMQRLENDNT
notes: MMS22L, human, endogenous in HeLa cells; source: endogenous, HeLa
B2: TONSL (natural protein, human (endogenous in HeLa), UniProt Q96HA7 1-1378, looked up)
chain: MSLERELRQLSKAKAKAQRAGQRREEAALCHQLGELLAGHGRYAEALEQHWQELQLRERADDPLGCAVAHRKIGERLAEMEDYPAALQHQHQYLELAHSLRNHTELQRAWATIGRTHLDIYDHCQSRDALLQAQAAFEKSLAIVDEELEGTLAQGELNEMRTRLYLNLGLTFESLQQTALCNDYFRKSIFLAEQNHLYEDLFRARYNLGTIHWRAGQHSQAMRCLEGARECAHTMRKRFMESECCVVIAQVLQDLGDFLAAKRALKKAYRLGSQKPVQRAAICQNLQHVLAVVRLQQQLEEAEGRDPQGAMVICEQLGDLFSKAGDFPRAAEAYQKQLRFAELLDRPGAERAIIHVSLATTLGDMKDHHGAVRHYEEELRLRSGNVLEEAKTWLNIALSREEAGDAYELLAPCFQKALSCAQQAQRPQLQRQVLQHLHTVQLRLQPQEAPETETRLRELSVAEDEDEEEEAEEAAATAESEALEAGEVELSEGEDDTDGLTPQLEEDEELQGHLGRRKGSKWNRRNDMGETLLHRACIEGQLRRVQDLVRQGHPLNPRDYCGWTPLHEACNYGHLEIVRFLLDHGAAVDDPGGQGCEGITPLHDALNCGHFEVAELLLERGASVTLRTRKGLSPLETLQQWVKLYRRDLDLETRQKARAMEMLLQAAASGQDPHSSQAFHTPSSLLFDPETSPPLSPCPEPPSNSTRLPEASQAHVRVSPGQAAPAMARPRRSRHGPASSSSSSEGEDSAGPARPSQKRPRCSATAQRVAAWTPGPASNREAATASTSRAAYQAAIRGVGSAQSRLGPGPPRGHSKALAPQAALIPEEECLAGDWLELDMPLTRSRRPRPRGTGDNRRPSSTSGSDSEESRPRARAKQVRLTCMQSCSAPVNAGPSSLASEPPGSPSTPRVSEPSGDSSAAGQPLGPAPPPPIRVRVQVQDHLFLIPVPHSSDTHSVAWLAEQAAQRYYQTCGLLPRLTLRKEGALLAPQDLIPDVLQSNDEVLAEVTSWDLPPLTDRYRRACQSLGQGEHQQVLQAVELQGLGLSFSACSLALDQAQLTPLLRALKLHTALRELRLAGNRLGDKCVAELVAALGTMPSLALLDLSSNHLGPEGLRQLAMGLPGQATLQSLEELDLSMNPLGDGCGQSLASLLHACPLLSTLRLQACGFGPSFFLSHQTALGSAFQDAEHLKTLSLSYNALGAPALARTLQSLPAGTLLHLELSSVAAGKGDSDLMEPVFRYLAKEGCALAHLTLSANHLGDKAVRDLCRCLSLCPSLISLDLSANPEISCASLEELLSTLQKRPQGLSFLGLSGCAVQGPLGLGLWDKIAAQLRELQLCSRRLCAEDRDALRQLQPSRPGPGECTLDHGSKLFFRRL
notes: TONSL, human, endogenous in HeLa cells; source: endogenous, HeLa

Legend:
FANCM [1] = target: T1, FANCM (human (endogenous in HeLa), UniProt Q8IYD8 1-2048); assay: proximity ligation; PLA in TMP/UVA-treated cells, early and late S phase sorted by flow cytometry; PCNA as marker of the S phase stage; conditions: partners not purified
T1 construct: FANCM, human, endogenous in HeLa cells; also called endogenous FANCM; source: endogenous, HeLa
T1 sequence (Q8IYD8 whole entry): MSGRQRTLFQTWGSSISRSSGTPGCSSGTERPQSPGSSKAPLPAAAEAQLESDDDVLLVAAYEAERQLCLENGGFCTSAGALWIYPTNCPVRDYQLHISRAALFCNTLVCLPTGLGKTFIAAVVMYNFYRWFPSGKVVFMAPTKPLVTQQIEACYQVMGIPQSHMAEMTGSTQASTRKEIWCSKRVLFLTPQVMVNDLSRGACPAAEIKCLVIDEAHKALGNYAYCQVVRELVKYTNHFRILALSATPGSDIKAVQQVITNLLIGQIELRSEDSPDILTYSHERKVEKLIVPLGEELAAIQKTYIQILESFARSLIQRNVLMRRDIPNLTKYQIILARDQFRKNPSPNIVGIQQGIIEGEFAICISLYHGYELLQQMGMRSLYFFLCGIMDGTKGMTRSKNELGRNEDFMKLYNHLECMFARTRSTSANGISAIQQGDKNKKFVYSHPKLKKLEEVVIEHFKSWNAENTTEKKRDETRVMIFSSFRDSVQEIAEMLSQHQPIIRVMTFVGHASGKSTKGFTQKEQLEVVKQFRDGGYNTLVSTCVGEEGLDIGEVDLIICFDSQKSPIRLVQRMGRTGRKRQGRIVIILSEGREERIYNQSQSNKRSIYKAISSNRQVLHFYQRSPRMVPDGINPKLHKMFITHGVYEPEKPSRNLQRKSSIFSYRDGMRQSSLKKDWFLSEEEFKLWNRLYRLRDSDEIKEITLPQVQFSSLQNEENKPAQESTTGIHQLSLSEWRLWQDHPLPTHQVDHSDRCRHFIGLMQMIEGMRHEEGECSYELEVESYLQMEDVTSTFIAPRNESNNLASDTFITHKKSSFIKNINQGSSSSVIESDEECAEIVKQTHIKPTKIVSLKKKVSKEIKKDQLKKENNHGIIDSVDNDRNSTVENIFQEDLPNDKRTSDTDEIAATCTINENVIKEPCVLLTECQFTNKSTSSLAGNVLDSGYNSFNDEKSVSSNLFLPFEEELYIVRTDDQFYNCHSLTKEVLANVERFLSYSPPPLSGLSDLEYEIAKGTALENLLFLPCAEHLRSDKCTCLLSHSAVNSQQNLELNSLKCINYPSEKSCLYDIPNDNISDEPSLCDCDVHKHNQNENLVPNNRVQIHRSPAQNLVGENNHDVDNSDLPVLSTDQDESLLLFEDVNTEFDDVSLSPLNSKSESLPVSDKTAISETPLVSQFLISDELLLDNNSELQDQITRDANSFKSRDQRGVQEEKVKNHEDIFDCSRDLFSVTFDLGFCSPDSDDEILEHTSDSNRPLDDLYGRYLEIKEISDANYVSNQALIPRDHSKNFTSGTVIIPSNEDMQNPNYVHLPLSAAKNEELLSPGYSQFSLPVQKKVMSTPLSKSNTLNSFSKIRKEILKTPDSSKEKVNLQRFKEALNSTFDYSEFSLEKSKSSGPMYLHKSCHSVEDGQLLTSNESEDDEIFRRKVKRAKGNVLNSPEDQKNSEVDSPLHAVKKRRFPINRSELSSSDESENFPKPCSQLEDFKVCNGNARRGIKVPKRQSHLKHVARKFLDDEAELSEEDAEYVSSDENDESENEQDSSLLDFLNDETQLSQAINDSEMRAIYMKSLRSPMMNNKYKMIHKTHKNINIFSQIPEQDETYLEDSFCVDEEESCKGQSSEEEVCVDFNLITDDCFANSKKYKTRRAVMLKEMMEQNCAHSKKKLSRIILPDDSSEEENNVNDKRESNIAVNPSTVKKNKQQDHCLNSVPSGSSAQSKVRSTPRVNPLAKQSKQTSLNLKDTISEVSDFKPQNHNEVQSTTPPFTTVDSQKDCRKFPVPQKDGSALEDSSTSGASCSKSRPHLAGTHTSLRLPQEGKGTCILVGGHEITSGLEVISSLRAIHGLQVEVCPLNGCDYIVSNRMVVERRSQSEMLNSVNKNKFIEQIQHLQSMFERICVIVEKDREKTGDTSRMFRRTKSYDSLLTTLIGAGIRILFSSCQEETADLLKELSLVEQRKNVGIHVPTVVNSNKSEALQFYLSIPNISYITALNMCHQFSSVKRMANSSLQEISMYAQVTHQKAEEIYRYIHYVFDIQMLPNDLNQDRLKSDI

FANCM [2] = target: T1, FANCM; assay: proximity ligation; Duolink PLA in HeLa cells treated with 1.5 uM TMP and UVA (3 J/cm2), 60 min in fresh medium before fixation; conditions: partners not purified

Binder	fold increase of PLA signals, late S over early S phase (FANCM [1])	fold increase of PLA signals, TMP/UVA-treated over UVA-treated cells (FANCM [2])
B1	~20 fold	~20 fold
B2	~20 fold	~20 fold
